According to patent US20090226525:

Experiments:
Test in all cases: EMSA
[1] = target: HBV core protein K7 mutant (truncated core, C-terminal 7-lysine tail, E77C) (Hepatitis B virus) (UniProt P03149); conditions: phosphate (P) at end of the sequence; 20 mM NaHCO3 pH 9.5, room temperature, agarose gel
[2] = target: HBV core protein K11 mutant (truncated core, C-terminal 11-lysine tail, E77C) (Hepatitis B virus) (UniProt P03149); conditions: phosphate (P) at end of the sequence; 20 mM NaHCO3 pH 9.5, room temperature, agarose gel
[3] = target: HBV core protein K9 mutant (truncated core, C-terminal 9-lysine tail, E77C) (Hepatitis B virus) (UniProt P03149); conditions: phosphate (P) at end of the sequence; 20 mM Tris pH 7.7 (p269 states 10 mM Tris), room temperature, agarose gel

What does the source list for “GGAAAGACUGUUCCAAAAAUUUUCCUUUCUGACAAGGUUUUU / AAAAACCUUGUCAGAAAGGAAAAUUUUUGGAACAGUCUUUCC [siGLO Cyclophilin B siRNA]”?
Kd [1]: 370 nM; Kd [2]: 69 nM; Kd [3]: 115 nM
